T1: recombinant cynomolgus SEMA4A AviHis10, biotinylated (cynomolgus, UniProt Q9H3S1 32-677 (human entry), biotin on the Avi tag (BirA))
T1 construct: The text says amino acids 32-679 of G7NV79 with C-terminal Avi tag and His10 tag; also called Cyno SEMA4A AviHis10; cynoSEMA4A
T1 chain: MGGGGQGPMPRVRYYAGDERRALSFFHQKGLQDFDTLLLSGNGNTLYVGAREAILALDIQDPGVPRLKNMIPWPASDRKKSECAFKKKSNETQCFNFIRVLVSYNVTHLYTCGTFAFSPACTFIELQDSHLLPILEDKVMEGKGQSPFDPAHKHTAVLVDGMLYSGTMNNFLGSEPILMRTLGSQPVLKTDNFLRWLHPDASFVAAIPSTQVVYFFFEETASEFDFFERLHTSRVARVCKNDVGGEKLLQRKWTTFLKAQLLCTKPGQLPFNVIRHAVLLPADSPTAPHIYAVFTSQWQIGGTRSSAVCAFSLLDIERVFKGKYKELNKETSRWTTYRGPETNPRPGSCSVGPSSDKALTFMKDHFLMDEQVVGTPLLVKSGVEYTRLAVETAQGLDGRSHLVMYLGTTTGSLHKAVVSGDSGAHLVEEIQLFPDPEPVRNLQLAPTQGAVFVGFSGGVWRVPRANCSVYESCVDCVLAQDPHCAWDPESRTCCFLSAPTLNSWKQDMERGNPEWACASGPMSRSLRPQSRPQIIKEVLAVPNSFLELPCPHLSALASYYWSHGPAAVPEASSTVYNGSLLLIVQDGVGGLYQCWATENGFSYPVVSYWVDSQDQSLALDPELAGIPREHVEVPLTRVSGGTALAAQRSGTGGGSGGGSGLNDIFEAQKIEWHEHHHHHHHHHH

T2: cynomolgus SEMA4A expressed on expi293 cells (UniProt ID G7NV79) (cynomolgus, UniProt Q9H3S1 33-761 (human entry))
T2 construct: Transient transfection in expi293 cells; also called cyno SEMA4A
T2 chain: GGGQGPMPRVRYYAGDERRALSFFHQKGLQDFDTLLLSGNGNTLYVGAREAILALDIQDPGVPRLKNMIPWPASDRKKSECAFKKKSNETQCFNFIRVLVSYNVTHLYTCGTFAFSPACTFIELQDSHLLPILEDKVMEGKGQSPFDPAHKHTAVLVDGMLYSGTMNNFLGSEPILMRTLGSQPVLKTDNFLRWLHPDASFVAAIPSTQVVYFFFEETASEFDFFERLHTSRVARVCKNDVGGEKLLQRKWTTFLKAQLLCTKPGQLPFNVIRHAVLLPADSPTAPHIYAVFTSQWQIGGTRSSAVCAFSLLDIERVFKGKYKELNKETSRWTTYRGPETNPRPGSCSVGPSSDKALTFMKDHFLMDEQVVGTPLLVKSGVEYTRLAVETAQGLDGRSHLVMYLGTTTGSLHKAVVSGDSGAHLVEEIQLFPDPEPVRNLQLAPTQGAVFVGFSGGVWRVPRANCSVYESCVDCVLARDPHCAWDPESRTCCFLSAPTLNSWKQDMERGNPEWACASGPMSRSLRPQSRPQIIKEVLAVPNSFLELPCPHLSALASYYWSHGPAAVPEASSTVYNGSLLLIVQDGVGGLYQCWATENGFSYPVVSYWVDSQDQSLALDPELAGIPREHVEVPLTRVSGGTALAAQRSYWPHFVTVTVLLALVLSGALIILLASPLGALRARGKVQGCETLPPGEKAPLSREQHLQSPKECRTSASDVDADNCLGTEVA

B1: C0120917 human Alya IgG1 (antibody, V domains shown)
VH: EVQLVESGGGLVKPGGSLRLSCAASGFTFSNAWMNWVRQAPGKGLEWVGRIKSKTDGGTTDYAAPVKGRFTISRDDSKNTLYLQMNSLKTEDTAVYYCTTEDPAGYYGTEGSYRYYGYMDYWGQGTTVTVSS
VL: NFMLTQPHSVSESPGKTVTISCTASGDTLDNKYVNWYQVRPGSAPATLIFHYEERDSGVPDRFSGSFDASSNSASLTISGLQTADEADYFCQSYDSKRDNLVVFGGGTKVTVL
notes: Fully human, phage display derived; human IgG1 Alya constant (239iCys, S442C, EU); unconjugated
B2: C0120918 human Alya IgG1 (antibody, V domains shown)
VH: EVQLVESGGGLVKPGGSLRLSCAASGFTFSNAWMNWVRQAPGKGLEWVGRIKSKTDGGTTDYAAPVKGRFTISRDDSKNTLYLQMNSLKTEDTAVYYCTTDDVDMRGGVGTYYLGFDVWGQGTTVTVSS
VL: SYELTQPPSVSVSPGQTARITCSGDALPKQYAYWYQQKPGQAPVLVIYKDSERPSGIPERFSGSSSGTTVTLTISGVQAEDEADYYCQSADSSGTWVFGGGTKVTVL
notes: as for B1
B3: C0120903 human Alya IgG1 (antibody, V domains shown)
VH: EVQLVQSGAEVKKPGSSMKVSCKASGGTFNSYTINWVRQAPGQGLEWVGGFIPIFGTADYAQKFHGRVAITADESMSTAYMELSSLRSEDTAVYYCARAPLGSEPFDYWGQGTMVTVSS
VL: SYVLTQPPSVSVAPGQTARITCGGNNIGSKSVHWYQQKPGQAPVLVVYDDSDRPSGIPERFSGSNSGNTATLTISRVEAGDEADYYCQVWDSSSDHLVFGGGTKLTVL
notes: as for B1
B4: mouse 5E3 expressed as human IgG1 Alya (antibody, V domains shown)
VH: QVQLQQPGAELVMPGASVKMSCKASGYTFTDYWMHWVKQRPGQGLEWIGAIDTSDSYTSYNQKFKGKATLTVDESSSTAYMQLSSLTSEDSAVYYCARDYGNFYYYAMDYWGQGTSVTVSS
VL: QAVVTQESALTTSPGETVTLTCRSSTGAVTTSNYANWVQEKPDHLFTGLIGGTNNRAPGVPARFSGSLIGDKAALTITGAQTEDEAIYFCALWYSNHWVFGGGTKLTVL
notes: Mouse variable domains on human IgG1 Alya constant (pEU1.22; 239iCys and S442C, EU numbering); purified, unconjugated; also called 5E3 IgG1 Alya
B5: C0120914 human Alya IgG1 (antibody, V domains shown)
VH: QVQLQESGPGLVKPSETLSLTCTVSGGSVSSGRYDWSWIRQPPGKGLEWIGHIYYTGITDYNPSLRSRVTISADKPKNQFSLKLNSVTAADTAVYYCARGPFFDPWGQGTMVTVSS
VL: QSVLTQPPSVSVAPGQTASLTCGANNIGSKSVQWYQQKPGQAPVLVVYDGSDRPSGIPDRFSGSSSENTATLTISRVEAGDEADYYCQLWDSVTDRPVFGGGTKVTVL
notes: as for B1

Molecular target: T1, recombinant cynomolgus SEMA4A AviHis10, …
Assay: BLI (OctetRED), biotinylated SEMA4A on streptavidin tip, IgG as analyte, 1:1 model; KD(observed) IgG
Protocol: An Octet Kinetics buffer (PBS containing 0.01% (v/v) BSA and 0.002% (v/v) Tween20) is typically used as the diluent buffer for the analyte samples and as the flow buffer during the dissociation phase. The experimental data is recorded as shift in interference pattern (nm) over time, which is directly proportional to the optical thickness at the biosensor tip, which in turn is an approximate measure of the mass of analyte bound. The proprietary Octet Data Analysis software package can then be used to process data and fit binding models to the data sets. Returned association (ka, M-1 s-1) and dissociation (kd, s-1) rate constants allow calculation of dissociation (KD, M) affinity constants.
The affinity of binding between the analytes (humanised and phage display derived IgGs as human Alya IgG1s and Fabs) and human SEMA4A and cynomolgus SEMA4A, was estimated using assays in which the biotinylated SEMA4A antigen was captured on a streptavidin sensor tip. A fresh sensor tip was used for each measurement and no regeneration was used. A series of dilutions of the lead Fabs and human Alya IgG1s (3.25-240 nM) were individually placed in contact with the ligand surface for a sufficient amount of time to observe sensorgrams that could be fitted to an appropriate binding model with confidence (typically 5 minutes), followed by an appropriate length of dissociation time (typically 10 minutes). Blank reference (0 nM analyte) data were subtracted from each dataset to reduce the impact of any buffer artefacts or non-specific binding effects. A 1:1 binding model was then fitted simultaneously to the data from each analyte titration using the Octet Evaluation software (Table 8).

| Binder | Kd |
| --- | --- |
| B1 | 6 nM |
| B2 | 9 nM |
| B3 | 20 nM |
| B4 | ≤ 1 nM |
| B5 | 97 nM |

Molecular target: T2, cynomolgus SEMA4A expressed on expi293 …
Assay: Mirrorball direct binding, dilution series on expi293 cells transiently transfected with cynomolgus SEMA4A, anti-human Alexa Fluor 647
Source text: Hits from the primary screening were re-formatted into the human Alya IgG1 vector and re-expressed and purified as described in section 4.1. In addition, a single clone was identified that contained an Asparagine deamidation motif (Asn Gly) within its VHCDR2. This potential sequence liability was de-risked by synthesising de novo two clonal variant VH genes (Asn Ala and Gln Gly) and cloning these sequences into the human Alya IgG1 expression vector. To determine the specificity profile of each purified human Alya IgG1, a dilution series was tested for binding to human SEMA4A, mouse SEMA4A, cyno SEMA4A, human SEMA4B and mock transfected cells (transient transfections set up in expi 293 cells.) The five assays employed methods described in section 2.3, using the appropriate cells and substituting the un-purified scFv periplasmic preparation with the recombinant human Alya IgG1 dilution series. Data was analysed as Count x median mean intensity (x FLU).

| Binder | binding result |
| --- | --- |
| B4 | binds |

Source: patent US20250152729A1 (CANCER RESEARCH TECHNOLOGY, published 2025)
